According to patent US20140213513A1 (Sanofi, priority 2012, published 2014):
*1 amine or outer side, *2 acyl side, *3 side chain or, on linkers, in order; H or OH if unused. Where no end group is shown, it is not given here. Side-chain parts run from the residue outwards. [ ]: non-standard residue; d: D form. The star is where a group is joined. γGlu = O=C(O)[C@H](CCC(=O)[*:2])N[*:1]; Stearoyl = CCCCCCCCCCCCCCCCCC(=O)*; Palmitoyl = CCCCCCCCCCCCCCCC(=O)*; Aib = CC(C)(N)C(=O)O

How the values were obtained:
Experiment in all cases: cell-based or functional assay
human GIP receptor = biological target: T1, human GIP receptor (human, UniProt P48546 22-466)
T1 sequence (looked up): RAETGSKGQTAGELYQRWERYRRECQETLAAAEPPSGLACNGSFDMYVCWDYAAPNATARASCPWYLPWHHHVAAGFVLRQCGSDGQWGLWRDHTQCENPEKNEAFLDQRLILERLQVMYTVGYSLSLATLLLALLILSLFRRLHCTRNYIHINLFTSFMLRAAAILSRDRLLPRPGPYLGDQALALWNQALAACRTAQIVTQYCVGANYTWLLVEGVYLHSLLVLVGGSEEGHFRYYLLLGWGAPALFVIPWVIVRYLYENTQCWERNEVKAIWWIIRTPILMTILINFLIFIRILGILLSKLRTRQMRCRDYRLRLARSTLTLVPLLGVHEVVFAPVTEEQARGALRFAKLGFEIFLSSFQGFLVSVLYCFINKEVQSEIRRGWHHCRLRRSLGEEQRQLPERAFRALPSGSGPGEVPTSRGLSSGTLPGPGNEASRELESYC

human GLP-1 receptor = human GLP-1 receptor (human, UniProt P43220 24-463)
human glucagon receptor = human glucagon receptor (human, UniProt P47871 26-477)
human glucagon receptor, sequence (P47871 26-477): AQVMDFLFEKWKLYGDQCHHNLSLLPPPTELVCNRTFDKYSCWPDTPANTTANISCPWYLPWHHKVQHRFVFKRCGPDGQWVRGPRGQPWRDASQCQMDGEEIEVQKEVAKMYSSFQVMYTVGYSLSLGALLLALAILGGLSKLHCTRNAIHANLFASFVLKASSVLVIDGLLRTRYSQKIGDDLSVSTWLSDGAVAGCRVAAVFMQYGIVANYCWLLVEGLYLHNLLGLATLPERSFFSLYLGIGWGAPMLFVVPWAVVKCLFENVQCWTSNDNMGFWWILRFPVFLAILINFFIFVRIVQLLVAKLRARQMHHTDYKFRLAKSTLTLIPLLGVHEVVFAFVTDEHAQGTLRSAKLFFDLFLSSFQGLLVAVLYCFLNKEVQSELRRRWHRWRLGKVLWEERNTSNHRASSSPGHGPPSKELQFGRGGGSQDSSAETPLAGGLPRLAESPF

Tyr(1)Ile(12)-GLP1 (peptide) showed an EC50 hGIP R (human GIP receptor) of 3660 pM and an EC50 hGLP-1 R (human GLP-1 receptor) of 5 pM.

B1: exendin-4 peptide analogue SEQ ID NO: 38 (peptide)
peptide: Y[Aib]EGTFTSDLSIQK([γGlu-Palmitoyl])EEQAAHEFIEWLKR[Aib]GPSSGAPPPS-NH2
modifications: N-terminus assumed
SMILES: CCCCCCCCCCCCCCCC(=O)N[C@@H](CCC(=O)NCCCC[C@H](NC(=O)[C@H](CCC(N)=O)NC(=O)[C@@H](NC(=O)[C@H](CO)NC(=O)[C@H](CC(C)C)NC(=O)[C@H](CC(=O)O)NC(=O)[C@H](CO)NC(=O)[C@@H](NC(=O)[C@H](Cc1ccccc1)NC(=O)[C@@H](NC(=O)CNC(=O)[C@H](CCC(=O)O)NC(=O)C(C)(C)NC(=O)[C@@H](N)Cc1ccc(O)cc1)[C@@H](C)O)[C@@H](C)O)[C@@H](C)CC)C(=O)N[C@@H](CCC(=O)O)C(=O)N[C@@H](CCC(=O)O)C(=O)N[C@@H](CCC(N)=O)C(=O)N[C@@H](C)C(=O)N[C@@H](C)C(=O)N[C@@H](Cc1c[nH]cn1)C(=O)N[C@@H](CCC(=O)O)C(=O)N[C@@H](Cc1ccccc1)C(=O)N[C@H](C(=O)N[C@@H](CCC(=O)O)C(=O)N[C@@H](Cc1c[nH]c2ccccc12)C(=O)N[C@@H](CC(C)C)C(=O)N[C@@H](CCCCN)C(=O)N[C@@H](CCCNC(=N)N)C(=O)NC(C)(C)C(=O)NCC(=O)N1CCC[C@H]1C(=O)N[C@@H](CO)C(=O)N[C@@H](CO)C(=O)NCC(=O)N[C@@H](C)C(=O)N1CCC[C@H]1C(=O)N1CCC[C@H]1C(=O)N1CCC[C@H]1C(=O)N[C@@H](CO)C(N)=O)[C@@H](C)CC)C(=O)O
For B1, the “EC50 hGIP R” value (human GIP receptor) was 7.4 pM, the “EC50 hGLP-1 R” value (human GLP-1 receptor) was 9 pM and the “EC50 hGLUC R” value (human glucagon receptor) was 22500 pM.

B2: exendin-4 peptide analogue SEQ ID NO: 40 (peptide)
peptide: Y[Aib]QGTFTSDLSKQK([γGlu-Palmitoyl])ESKAAQEFIEWLKAGGPSSGAPPPS-NH2
modifications: N-terminus assumed
SMILES: CCCCCCCCCCCCCCCC(=O)N[C@@H](CCC(=O)NCCCC[C@H](NC(=O)[C@H](CCC(N)=O)NC(=O)[C@H](CCCCN)NC(=O)[C@H](CO)NC(=O)[C@H](CC(C)C)NC(=O)[C@H](CC(=O)O)NC(=O)[C@H](CO)NC(=O)[C@@H](NC(=O)[C@H](Cc1ccccc1)NC(=O)[C@@H](NC(=O)CNC(=O)[C@H](CCC(N)=O)NC(=O)C(C)(C)NC(=O)[C@@H](N)Cc1ccc(O)cc1)[C@@H](C)O)[C@@H](C)O)C(=O)N[C@@H](CCC(=O)O)C(=O)N[C@@H](CO)C(=O)N[C@@H](CCCCN)C(=O)N[C@@H](C)C(=O)N[C@@H](C)C(=O)N[C@@H](CCC(N)=O)C(=O)N[C@@H](CCC(=O)O)C(=O)N[C@@H](Cc1ccccc1)C(=O)N[C@H](C(=O)N[C@@H](CCC(=O)O)C(=O)N[C@@H](Cc1c[nH]c2ccccc12)C(=O)N[C@@H](CC(C)C)C(=O)N[C@@H](CCCCN)C(=O)N[C@@H](C)C(=O)NCC(=O)NCC(=O)N1CCC[C@H]1C(=O)N[C@@H](CO)C(=O)N[C@@H](CO)C(=O)NCC(=O)N[C@@H](C)C(=O)N1CCC[C@H]1C(=O)N1CCC[C@H]1C(=O)N1CCC[C@H]1C(=O)N[C@@H](CO)C(N)=O)[C@@H](C)CC)C(=O)O
B2 was tested, and the “EC50 hGIP R” value (human GIP receptor) was 53.6 pM, the “EC50 hGLP-1 R” value (human GLP-1 receptor) was 5.5 pM and the “EC50 hGLUC R” value (human glucagon receptor) was 22.6 pM.

B3: exendin-4 peptide analogue SEQ ID NO: 33 (peptide)
peptide: Y[Aib]QGTFTSDLSIQK([γGlu-Palmitoyl])EKRAALEFIEWLKNTGPSSGAPPPS-NH2
modifications: N-terminus assumed
SMILES: CCCCCCCCCCCCCCCC(=O)N[C@@H](CCC(=O)NCCCC[C@H](NC(=O)[C@H](CCC(N)=O)NC(=O)[C@@H](NC(=O)[C@H](CO)NC(=O)[C@H](CC(C)C)NC(=O)[C@H](CC(=O)O)NC(=O)[C@H](CO)NC(=O)[C@@H](NC(=O)[C@H](Cc1ccccc1)NC(=O)[C@@H](NC(=O)CNC(=O)[C@H](CCC(N)=O)NC(=O)C(C)(C)NC(=O)[C@@H](N)Cc1ccc(O)cc1)[C@@H](C)O)[C@@H](C)O)[C@@H](C)CC)C(=O)N[C@@H](CCC(=O)O)C(=O)N[C@@H](CCCCN)C(=O)N[C@@H](CCCNC(=N)N)C(=O)N[C@@H](C)C(=O)N[C@@H](C)C(=O)N[C@@H](CC(C)C)C(=O)N[C@@H](CCC(=O)O)C(=O)N[C@@H](Cc1ccccc1)C(=O)N[C@H](C(=O)N[C@@H](CCC(=O)O)C(=O)N[C@@H](Cc1c[nH]c2ccccc12)C(=O)N[C@@H](CC(C)C)C(=O)N[C@@H](CCCCN)C(=O)N[C@@H](CC(N)=O)C(=O)N[C@H](C(=O)NCC(=O)N1CCC[C@H]1C(=O)N[C@@H](CO)C(=O)N[C@@H](CO)C(=O)NCC(=O)N[C@@H](C)C(=O)N1CCC[C@H]1C(=O)N1CCC[C@H]1C(=O)N1CCC[C@H]1C(=O)N[C@@H](CO)C(N)=O)[C@@H](C)O)[C@@H](C)CC)C(=O)O
In the case of B3, the “EC50 hGIP R” value (human GIP receptor) is reported as 88.2 pM and the “EC50 hGLUC R” value (human glucagon receptor) is reported as 109 pM.

B4: exendin-4 peptide analogue SEQ ID NO: 8 (peptide)
peptide: Y[Aib]QGTFTSDLSIQK([γGlu-Palmitoyl])EKLAA[Aib]EFIEWLKNTGPSSGAPPPS-NH2
modifications: N-terminus assumed
SMILES: CCCCCCCCCCCCCCCC(=O)N[C@@H](CCC(=O)NCCCC[C@H](NC(=O)[C@H](CCC(N)=O)NC(=O)[C@@H](NC(=O)[C@H](CO)NC(=O)[C@H](CC(C)C)NC(=O)[C@H](CC(=O)O)NC(=O)[C@H](CO)NC(=O)[C@@H](NC(=O)[C@H](Cc1ccccc1)NC(=O)[C@@H](NC(=O)CNC(=O)[C@H](CCC(N)=O)NC(=O)C(C)(C)NC(=O)[C@@H](N)Cc1ccc(O)cc1)[C@@H](C)O)[C@@H](C)O)[C@@H](C)CC)C(=O)N[C@@H](CCC(=O)O)C(=O)N[C@@H](CCCCN)C(=O)N[C@@H](CC(C)C)C(=O)N[C@@H](C)C(=O)N[C@@H](C)C(=O)NC(C)(C)C(=O)N[C@@H](CCC(=O)O)C(=O)N[C@@H](Cc1ccccc1)C(=O)N[C@H](C(=O)N[C@@H](CCC(=O)O)C(=O)N[C@@H](Cc1c[nH]c2ccccc12)C(=O)N[C@@H](CC(C)C)C(=O)N[C@@H](CCCCN)C(=O)N[C@@H](CC(N)=O)C(=O)N[C@H](C(=O)NCC(=O)N1CCC[C@H]1C(=O)N[C@@H](CO)C(=O)N[C@@H](CO)C(=O)NCC(=O)N[C@@H](C)C(=O)N1CCC[C@H]1C(=O)N1CCC[C@H]1C(=O)N1CCC[C@H]1C(=O)N[C@@H](CO)C(N)=O)[C@@H](C)O)[C@@H](C)CC)C(=O)O
In the case of B4, the “EC50 hGIP R” value (human GIP receptor) is reported as 26 pM, the “EC50 hGLP-1 R” value (human GLP-1 receptor) is reported as 8.7 pM and the “EC50 hGLUC R” value (human glucagon receptor) is reported as 803 pM.

B5: exendin-4 peptide analogue SEQ ID NO: 39 (peptide)
peptide: Y[Aib]QGTFTSDLSKQK([γGlu-Palmitoyl])ESKAAQDFIEWLKAGGPSSGAPPPS-NH2
modifications: N-terminus assumed
SMILES: CCCCCCCCCCCCCCCC(=O)N[C@@H](CCC(=O)NCCCC[C@H](NC(=O)[C@H](CCC(N)=O)NC(=O)[C@H](CCCCN)NC(=O)[C@H](CO)NC(=O)[C@H](CC(C)C)NC(=O)[C@H](CC(=O)O)NC(=O)[C@H](CO)NC(=O)[C@@H](NC(=O)[C@H](Cc1ccccc1)NC(=O)[C@@H](NC(=O)CNC(=O)[C@H](CCC(N)=O)NC(=O)C(C)(C)NC(=O)[C@@H](N)Cc1ccc(O)cc1)[C@@H](C)O)[C@@H](C)O)C(=O)N[C@@H](CCC(=O)O)C(=O)N[C@@H](CO)C(=O)N[C@@H](CCCCN)C(=O)N[C@@H](C)C(=O)N[C@@H](C)C(=O)N[C@@H](CCC(N)=O)C(=O)N[C@@H](CC(=O)O)C(=O)N[C@@H](Cc1ccccc1)C(=O)N[C@H](C(=O)N[C@@H](CCC(=O)O)C(=O)N[C@@H](Cc1c[nH]c2ccccc12)C(=O)N[C@@H](CC(C)C)C(=O)N[C@@H](CCCCN)C(=O)N[C@@H](C)C(=O)NCC(=O)NCC(=O)N1CCC[C@H]1C(=O)N[C@@H](CO)C(=O)N[C@@H](CO)C(=O)NCC(=O)N[C@@H](C)C(=O)N1CCC[C@H]1C(=O)N1CCC[C@H]1C(=O)N1CCC[C@H]1C(=O)N[C@@H](CO)C(N)=O)[C@@H](C)CC)C(=O)O
With B5 the “EC50 hGIP R” value (human GIP receptor) was 38.5 pM, the “EC50 hGLP-1 R” value (human GLP-1 receptor) was 4.5 pM and the “EC50 hGLUC R” value (human glucagon receptor) was 19.2 pM.

B6: exendin-4 peptide analogue SEQ ID NO: 41 (peptide)
peptide: Y[Aib]QGTFTSDLSKQK([γGlu-Stearoyl])DSKAAQDFIEWLKAGGPSSGAPPPS-NH2
modifications: N-terminus assumed
SMILES: CCCCCCCCCCCCCCCCCC(=O)N[C@@H](CCC(=O)NCCCC[C@H](NC(=O)[C@H](CCC(N)=O)NC(=O)[C@H](CCCCN)NC(=O)[C@H](CO)NC(=O)[C@H](CC(C)C)NC(=O)[C@H](CC(=O)O)NC(=O)[C@H](CO)NC(=O)[C@@H](NC(=O)[C@H](Cc1ccccc1)NC(=O)[C@@H](NC(=O)CNC(=O)[C@H](CCC(N)=O)NC(=O)C(C)(C)NC(=O)[C@@H](N)Cc1ccc(O)cc1)[C@@H](C)O)[C@@H](C)O)C(=O)N[C@@H](CC(=O)O)C(=O)N[C@@H](CO)C(=O)N[C@@H](CCCCN)C(=O)N[C@@H](C)C(=O)N[C@@H](C)C(=O)N[C@@H](CCC(N)=O)C(=O)N[C@@H](CC(=O)O)C(=O)N[C@@H](Cc1ccccc1)C(=O)N[C@H](C(=O)N[C@@H](CCC(=O)O)C(=O)N[C@@H](Cc1c[nH]c2ccccc12)C(=O)N[C@@H](CC(C)C)C(=O)N[C@@H](CCCCN)C(=O)N[C@@H](C)C(=O)NCC(=O)NCC(=O)N1CCC[C@H]1C(=O)N[C@@H](CO)C(=O)N[C@@H](CO)C(=O)NCC(=O)N[C@@H](C)C(=O)N1CCC[C@H]1C(=O)N1CCC[C@H]1C(=O)N1CCC[C@H]1C(=O)N[C@@H](CO)C(N)=O)[C@@H](C)CC)C(=O)O
In the case of B6, the “EC50 hGIP R” value (human GIP receptor) is reported as 186 pM, the “EC50 hGLP-1 R” value (human GLP-1 receptor) is reported as 24.1 pM and the “EC50 hGLUC R” value (human glucagon receptor) is reported as 26.5 pM.

B7: exendin-4 peptide analogue SEQ ID NO: 65 (peptide)
peptide: YAEGTFTSDLSKQKEEEAVRLFIEWLKAGGPSSGAPPPS
modifications: Aib at 2; Lys14 side-chain NH2 acylated with (S)-4-Carboxy-4-octadecanoylamino-butyryl- (yE-x70); C-terminal amide
In the case of B7, the “EC50 hGIP R” value (human GIP receptor) is reported as 12 pM and the “EC50 hGLUC R” value (human glucagon receptor) is reported as 26800 pM.
